Where a chain is given by its changes, count along the chain named.
What was measured:
Assay in all cases: AUC
AUC = molecular target: the molecule itself
[1] = molecular target: T1, phage λ terminase large subunit TerL^λ, wild type (phage λ, UniProt P03708 1-641)
T1 sequence (looked up): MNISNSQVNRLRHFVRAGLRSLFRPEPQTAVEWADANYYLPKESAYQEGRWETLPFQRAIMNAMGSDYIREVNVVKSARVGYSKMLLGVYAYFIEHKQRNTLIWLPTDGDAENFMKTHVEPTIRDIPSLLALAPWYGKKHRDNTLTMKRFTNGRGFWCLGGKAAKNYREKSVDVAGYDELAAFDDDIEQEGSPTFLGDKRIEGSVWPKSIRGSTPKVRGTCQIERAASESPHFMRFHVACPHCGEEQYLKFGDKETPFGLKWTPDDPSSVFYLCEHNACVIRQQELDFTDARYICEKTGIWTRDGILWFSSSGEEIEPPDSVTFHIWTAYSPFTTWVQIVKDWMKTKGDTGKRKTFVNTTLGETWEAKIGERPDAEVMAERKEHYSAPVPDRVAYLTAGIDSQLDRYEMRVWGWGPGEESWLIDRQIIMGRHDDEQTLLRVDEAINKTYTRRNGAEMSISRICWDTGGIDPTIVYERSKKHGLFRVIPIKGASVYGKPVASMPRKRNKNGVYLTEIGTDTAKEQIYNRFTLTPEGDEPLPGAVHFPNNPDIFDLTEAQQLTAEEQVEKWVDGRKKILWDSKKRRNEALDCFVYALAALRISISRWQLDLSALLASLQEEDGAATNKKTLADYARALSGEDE

[2] = molecular target: T2, phage λ terminase large subunit TerL^λ-D178N (phage λ, UniProt P03708 1-641, D178N)
T2 sequence (looked up): T1 sequence (looked up) with D178N

Measured: binding result

B1: phage λ terminase small subunit TerS^λ (natural protein, UniProt P03707 1-181, looked up)
chain: MEVNKKQLADIFGASIRTIQNWQEQGMPVLRGGGKGNEVLYDSAAVIKWYAERDAEIENEKLRREVEELRQASEADLQPGTIEYERHRLTRAQADAQELKNARDSAEVVETAFCTFVLSRIAGEIASILDGLPLSVQRRFPELENRHVDFLKRDIIKAMNKAAALDELIPGLLSEYIEQSG
binds: all assays above

Source: PMC7416571 (Journal of molecular biology, 2019)
